The source of these data is patent publication US20260028417A1 (SICHUAN KELUN BIOTECH BIOPHARMACEUTICAL, published 2026).

In general, EC50 refers to the concentration giving half of the maximal effect. Broadly, the Kd is the free concentration of one partner at which half of the binding sites on the other are occupied at equilibrium, for simple one-to-one binding. The term koff denotes the first-order rate constant of dissociation. The term kon denotes the second-order rate constant of association.

Assay [1] has as its target T1, monkey HER3 protein (extracellular sequence with six histidines at the C-terminal) (monkey).
T1 construct: Made in HEK293 cells; also called Monkey HER3-His
T1 chain: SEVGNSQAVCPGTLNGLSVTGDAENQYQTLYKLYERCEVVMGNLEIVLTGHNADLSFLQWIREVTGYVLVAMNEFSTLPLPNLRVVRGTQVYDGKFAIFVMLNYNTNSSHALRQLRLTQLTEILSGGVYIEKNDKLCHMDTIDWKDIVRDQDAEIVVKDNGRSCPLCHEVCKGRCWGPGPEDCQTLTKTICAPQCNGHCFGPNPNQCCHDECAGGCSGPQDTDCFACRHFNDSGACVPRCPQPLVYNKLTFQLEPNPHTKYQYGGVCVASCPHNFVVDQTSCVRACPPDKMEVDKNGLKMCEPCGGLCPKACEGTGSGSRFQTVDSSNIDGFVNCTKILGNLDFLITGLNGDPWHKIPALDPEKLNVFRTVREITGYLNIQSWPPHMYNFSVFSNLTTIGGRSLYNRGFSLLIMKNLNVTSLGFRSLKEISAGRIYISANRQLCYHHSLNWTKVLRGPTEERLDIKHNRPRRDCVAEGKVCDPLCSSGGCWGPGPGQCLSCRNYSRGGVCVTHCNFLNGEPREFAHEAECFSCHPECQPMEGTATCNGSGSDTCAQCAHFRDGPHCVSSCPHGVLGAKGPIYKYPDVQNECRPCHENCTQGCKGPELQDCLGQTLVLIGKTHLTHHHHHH
The experiment in a line: ELISA, coated monkey HER3-His. The protocol: (§1) The plate was washed 5 times with PBST (0.2% Tween-20), and dried, then 100 μl of TMB (InnoReagents) chromogenic substrate was added to each well, reacted at room temperature for 3-5 minutes, then 50 μl of 2N H₂SO₄ was added to each well to stop the chromogenic reaction, and the absorbance value at OD450 nm was read with a microplate reader. The raw data were imported into GraphPad Prism 6 software for nonlinear curve fitting, and EC50 values were calculated.

Assay [2] has as its target T2, human HER3 on cells (human, UniProt P21860 20-1342).
T2 construct: whole, on cells; also called T47D; NCI-N87
Briefly: flow cytometry on NCI-N87 cells. The protocol:
(§2) Data processing: the Median PE values were exported, then imported into GraphPad Prism 6 software, and EC50 values were calculated.

In assay [3] the target is T2, human HER3 on cells. The experiment in a line: cell-based or functional assay.
Assay [4] addresses T3, human HER3 protein (extracellular sequence with six histidines at the C-terminal) (human, UniProt P21860 20-643).
T3 construct: extracellular domain; Made in HEK293 cells; also called Human HER3-His
The experiment in a line: BLI (ForteBio), antibody captured on Protein A sensor, human HER3-His in solution, 1:1 global fit. How it is done:
(§3) The measured results were entered into Data Analysis 11.0 software, by using 1:1 mode, and global fitting; the results were analyzed to obtain the association rate, dissociation rate and affinity constant.

In assay [5] the target is T1, monkey HER3 protein (extracellular …). Briefly: BLI (ForteBio), antibody captured on Protein A sensor, monkey HER3-His in solution, 1:1 global fit. How it is done:
as §3
On the technique in general: Biolayer interferometry detects binding as a change in optical thickness at a sensor tip.

The target of assay [6] is T3, human HER3 protein (extracellular …). The experiment in a line: ELISA, coated human HER3-His. How it is done:
as §1
Background: An ELISA detects its analyte on a solid surface through an enzyme-linked reagent.

Assay [7] deals with T2, human HER3 on cells. Briefly: competition flow cytometry on adherent cells (cell line not named in paragraph 175); competitor: 100H7D3-hIgG-Bio, final 200 ng/ml; PE streptavidin. From the text:
Data processing: the Median PE values were exported, and then imported into GraphPad Prism 6 software for nonlinear curve fitting (4-parameter).
A general note: In flow cytometry, cells or beads pass a laser one at a time.

For another assay, the target named is T4, rat HER3 protein (rat, UniProt Q62799 20-643).
T4 construct: whole entry named; also called Rat HER3-His; rat protein
T4 sequence (Q62799 20-643): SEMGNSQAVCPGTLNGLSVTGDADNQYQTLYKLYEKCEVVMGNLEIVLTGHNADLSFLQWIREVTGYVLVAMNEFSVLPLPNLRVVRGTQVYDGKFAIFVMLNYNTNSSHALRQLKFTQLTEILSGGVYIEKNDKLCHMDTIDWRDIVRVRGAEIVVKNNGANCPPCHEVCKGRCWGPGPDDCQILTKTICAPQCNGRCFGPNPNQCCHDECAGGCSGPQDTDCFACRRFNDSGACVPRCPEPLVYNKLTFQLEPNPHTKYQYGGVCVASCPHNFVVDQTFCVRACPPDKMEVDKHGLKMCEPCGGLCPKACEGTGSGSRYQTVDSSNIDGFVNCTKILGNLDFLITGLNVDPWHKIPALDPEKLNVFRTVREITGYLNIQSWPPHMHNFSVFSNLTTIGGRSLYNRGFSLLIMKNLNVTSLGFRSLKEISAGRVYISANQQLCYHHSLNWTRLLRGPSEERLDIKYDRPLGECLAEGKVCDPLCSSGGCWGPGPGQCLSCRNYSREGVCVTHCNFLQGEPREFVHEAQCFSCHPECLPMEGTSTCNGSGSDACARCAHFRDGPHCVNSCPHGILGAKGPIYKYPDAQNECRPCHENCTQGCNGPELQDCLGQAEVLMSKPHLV
The experiment in a line: ELISA, coated rat HER3-His. The protocol: as §1

Assay [8] deals with T2, human HER3 on cells. The experiment in a line: flow cytometry on T47D cells. The protocol:
as §2

In assay [9] the target is T2, human HER3 on cells. Briefly: flow cytometry on NCI-H358 cells. How it is done: as §2

B1: 100H7D3-hIgG (anti-human HER3 fully human antibody) (antibody, V domains shown)
VH: EVQLVESGGGVVLPGRSLRLSCAASGFTFSRNAMHWVRQAPGKGLEWVAVIWHDGSNKYYGDSVKGRFTISRDNSKNTLYLQMDSLTAEDTAVYYCARDRGASDFRGQGTLVTVSS
VL: DIQMTQSPSTLSASVGDRVTITCRASQSINNWLAWYQQKPEKAPKLLIYKASSLESGVPSRFSGSGSGTEFTLTISSLQPDDFATYYCQQYNSYSLTFGGGTKVEIKR
notes: Human IgG1/kappa, expressed in CHO-S cells; also called 100H7D3-hIgG-Bio (biotin-labelled)
As for B1, the EC50 came to 0.0131 µg/mL in assay [1]; 0.218 µg/mL with human HER3 on cells [2]; 0.00849 µg/mL in [6]; 0.00937 µg/mL with rat HER3 protein; 0.203 µg/mL with human HER3 on cells [8]; 0.29 µg/mL in the assay with human HER3 on cells [9]. Besides, the “ADCC activity, EC50 (Jurkat-NFAT/luciferase-CD16a reporter with CHO-S-hHER3 target cells)” value in the assay with human HER3 on cells [3] amounted to 0.0257 µg/mL. Moreover, the Kd in assay [4] was 7.47 nM; in assay [5], 5.44 nM. Further, the results for the koff in assay [4] and in assay [5] were 0.00226 s⁻¹ and 0.000926 s⁻¹, respectively. Besides, the kon in assay [4] stood at 302000 M⁻¹ s⁻¹; in assay [5], 170000 M⁻¹ s⁻¹. Also, the “IC50 (read off the curve)” value with human HER3 on cells [7] was approximately 0.4 µg/mL.
